Common to all, as to conditions: protein: recombinant; tags: untagged; copies: 1;1;1
For data set [1], the target named is T1, RPA heterotrimer (RPA1-RPA2-RPA3), WT (Homo sapiens, UniProt P27694;P15927;P35244 1-616;1-270;1-121). Nature of the data set: fluorescence microscopy, co-partitioning into RPA droplets; equimolar; not enriched in droplets; Droplet assay buffer and temperature not in material; protein stored in diluted Sorensen phosphate buffer (43.4 mM Na2HPO4, 6.6 mM KH2PO4) pH 7.6, 150 mM KCl, 25 uM EDTA, 1 mM DTT.
T1 sequence (P27694 whole entry, chain 1 of 3): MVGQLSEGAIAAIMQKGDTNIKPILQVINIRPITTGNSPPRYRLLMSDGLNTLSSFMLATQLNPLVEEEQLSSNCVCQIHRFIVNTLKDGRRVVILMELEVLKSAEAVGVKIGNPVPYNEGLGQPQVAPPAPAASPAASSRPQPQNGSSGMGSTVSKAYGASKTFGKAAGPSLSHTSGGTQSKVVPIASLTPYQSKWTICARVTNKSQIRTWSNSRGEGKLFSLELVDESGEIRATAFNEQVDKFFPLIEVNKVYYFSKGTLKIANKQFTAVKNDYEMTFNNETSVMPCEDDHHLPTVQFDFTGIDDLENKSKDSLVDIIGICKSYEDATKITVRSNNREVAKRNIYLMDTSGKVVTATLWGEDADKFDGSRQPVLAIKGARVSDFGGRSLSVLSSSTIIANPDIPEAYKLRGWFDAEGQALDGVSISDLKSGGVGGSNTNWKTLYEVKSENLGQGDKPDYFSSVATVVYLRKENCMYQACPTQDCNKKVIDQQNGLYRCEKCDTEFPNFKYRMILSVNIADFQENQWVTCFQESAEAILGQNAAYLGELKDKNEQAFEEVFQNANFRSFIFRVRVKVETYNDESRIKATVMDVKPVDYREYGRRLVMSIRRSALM
T1 sequence (P15927 whole entry, chain 2 of 3): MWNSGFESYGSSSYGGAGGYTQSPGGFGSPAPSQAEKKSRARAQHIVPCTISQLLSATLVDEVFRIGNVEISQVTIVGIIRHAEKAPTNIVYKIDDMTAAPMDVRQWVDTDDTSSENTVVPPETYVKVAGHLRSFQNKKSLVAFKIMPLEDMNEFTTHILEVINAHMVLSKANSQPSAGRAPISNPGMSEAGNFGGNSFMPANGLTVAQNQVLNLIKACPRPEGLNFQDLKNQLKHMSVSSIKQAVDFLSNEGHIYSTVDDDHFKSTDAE
T1 sequence (P35244 whole entry, chain 3 of 3): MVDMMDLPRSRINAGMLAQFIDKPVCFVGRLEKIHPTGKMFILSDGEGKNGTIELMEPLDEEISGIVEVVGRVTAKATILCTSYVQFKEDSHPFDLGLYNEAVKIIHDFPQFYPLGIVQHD

The target in data set [2] is T1, RPA heterotrimer (RPA1-RPA2-RPA3), WT. As to the kind of experiment: fluorescence microscopy, co-partitioning into RPA droplets; equimolar; co-assembly, indirect evidence of binding; Droplet assay buffer and temperature not in material; protein stored in diluted Sorensen phosphate buffer (43.4 mM Na2HPO4, 6.6 mM KH2PO4) pH 7.6, 150 mM KCl, 25 uM EDTA, 1 mM DTT.
Data set [3] shares this target. Nature of the data set: fluorescence microscopy, co-partitioning into RPA droplets; equimolar; Droplet assay buffer and temperature not in material; protein stored in diluted Sorensen phosphate buffer (43.4 mM Na2HPO4, 6.6 mM KH2PO4) pH 7.6, 150 mM KCl, 25 uM EDTA, 1 mM DTT.

The text below walks through data of article PMC10113159.

Consider AGUCGUCGCUGCCAUAGCUUUCGAAUCCACUGUUCCACAU (ssRNA) [Cy3-40nt ssRNA], for which, in data set [1], the binding result is recorded as “no binding”. With AATTGTTATCCGCTCAC (ssDNA) [FAM-17nt ssDNA], the binding result in data set [2] was “binds”. For ATGTGGAACAGTGGATTCGAAAGCTATGGCAGCGACGACT (ssDNA) [Cy3-40nt ssDNA], the binding result in data set [3] is on record as “binds”. Same read-out and setting: under ATGTGGAACAGTGGATTCGAAAGCTATGGCAGCGACGACT (ssDNA) [FAM-40nt ssDNA] stands “binds”.
